In patent US20240376151A1, “STAPLED PEPTIDES AND METHODS THEREOF” (FOG PHARMACEUTICALS, INC., priority 2022, published 2024):

Target: T1, beta-catenin (Homo sapiens, UniProt P35222)
T1 construct: made in house; host or cells: E. coli BL21 (DE3) pLysS
T1 sequence (P35222 134-665): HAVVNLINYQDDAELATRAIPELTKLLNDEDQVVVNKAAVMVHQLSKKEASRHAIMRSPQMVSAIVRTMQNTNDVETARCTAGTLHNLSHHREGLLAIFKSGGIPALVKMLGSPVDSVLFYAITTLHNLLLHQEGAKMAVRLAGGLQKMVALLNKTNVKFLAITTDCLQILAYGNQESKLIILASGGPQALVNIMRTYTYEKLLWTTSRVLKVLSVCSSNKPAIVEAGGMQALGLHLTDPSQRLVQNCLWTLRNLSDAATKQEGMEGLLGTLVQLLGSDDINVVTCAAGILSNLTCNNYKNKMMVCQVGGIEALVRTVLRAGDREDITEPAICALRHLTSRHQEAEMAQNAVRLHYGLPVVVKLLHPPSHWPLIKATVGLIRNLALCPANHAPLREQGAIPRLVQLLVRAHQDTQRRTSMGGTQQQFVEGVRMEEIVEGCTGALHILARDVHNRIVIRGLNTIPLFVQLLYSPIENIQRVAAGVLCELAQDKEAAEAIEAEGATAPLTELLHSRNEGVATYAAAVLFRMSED
Experiment: Phage Library Screening with NGS, beta-catenin
Type: binding
Conditions: for Target Concentration 10 (phage screen NGS readout): beta-catenin target concentration 10; for Target Concentration 10 (phage screen NGS readout) / Target Concentration 30 (phage screen NGS readout) / Target Concentration 100 (phage screen NGS readout) / Target Concentration 300 (phage screen NGS readout): no competitor; for Target Concentration 30 (phage screen NGS readout): beta-catenin target concentration 30; for Target Concentration 100 (phage screen NGS readout): beta-catenin target concentration 100; for Target Concentration 300 (phage screen NGS readout): beta-catenin target concentration 300; for Target Concentration 1000 (phage screen NGS readout): beta-catenin target concentration 1000

Row | Sequence | Target Concentration BLANK (phage screen NGS readout) (first column) | Target Concentration BLANK (phage screen NGS readout) (fourth column) | Target Concentration BLANK (phage screen NGS readout) (second column) | Target Concentration BLANK (phage screen NGS readout) (third column) | Target Concentration 10 (phage screen NGS readout) | Target Concentration 30 (phage screen NGS readout) | Target Concentration 100 (phage screen NGS readout) | Target Concentration 300 (phage screen NGS readout) | Target Concentration 1000 (phage screen NGS readout) (first 1000 column) | Target Concentration 1000 (phage screen NGS readout) (second 1000 column)
1 | DPAEVECMLAAHVCRAF | 0 | 0 | 0 | 0 | 8 | 26 | 67 | 109 | 142 | 130
2 | DPAEWACEHAALTCWDQ | 1 | 0 | 4 | 0 | 6 | 24 | 148 | 448 | 431 | 449
3 | DPAEWDCMHAALICEVH | 0 | 0 | 0 | 0 | 0 | 10 | 55 | 54 | 67 | 89
4 | DPAEWICEHAALLCSVL | 0 | 0 | 0 | 0 | 0 | 0 | 11 | 33 | 33 | 27
5 | DPAEWQCEHAALLCEQQ | 0 | 6 | 2 | 0 | 78 | 201 | 907 | 1681 | 1740 | 1609
6 | DPAEWYCEHAALVCTNH | 2 | 1 | 0 | 0 | 0 | 12 | 47 | 156 | 148 | 155
7 | DPAFESCFLAAHICYWE | 0 | 0 | 0 | 0 | 2 | 0 | 10 | 7 | 18 | 16
8 | DPAFLDCHIAAWTCNEF | 0 | 0 | 0 | 0 | 0 | 1 | 10 | 15 | 28 | 15
9 | DPAFLTCHIAAWACSEQ | 0 | 0 | 2 | 1 | 0 | 1 | 21 | 15 | 52 | 25
10 | DPAHLMCHYAAWDCRDE | 0 | 0 | 0 | 0 | 0 | 0 | 11 | 13 | 12 | 23
11 | DPAHWHCEHAALLCASV | 1 | 0 | 0 | 0 | 2 | 15 | 60 | 231 | 177 | 234
12 | DPAHWRCEHAALLCWYN | 0 | 0 | 0 | 2 | 13 | 6 | 51 | 132 | 140 | 149
13 | DPAHWSCEWAAEHCRLI | 0 | 0 | 0 | 0 | 0 | 1 | 0 | 31 | 19 | 64
14 | DPAHWVCEHAALNCDQN | 0 | 0 | 1 | 0 | 0 | 2 | 47 | 96 | 104 | 118
15 | DPAIADCDWAAEHCDLL | 0 | 1 | 1 | 4 | 0 | 6 | 118 | 266 | 325 | 417
16 | DPAIFNCTMAALECTQI | 0 | 0 | 0 | 0 | 0 | 0 | 2 | 3 | 19 | 0
17 | DPAIIHCYQAAFQCQYM | 0 | 0 | 0 | 0 | 0 | 0 | 0 | 0 | 7 | 0
18 | DPAIIRCYEAAFYCQNY | 0 | 0 | 0 | 1 | 0 | 3 | 10 | 67 | 93 | 94
19 | DPAILDCHIAAIQCFHD | 0 | 3 | 0 | 0 | 2 | 1 | 6 | 8 | 1 | 44
